Measured values reported in the emibetuzumab library of Makowski et al. (2022).

B1: VH:VL chains; a variant is named by its letters at X, in order (parent)
chain 1: QVQLVQSGAEVKKPGASVKVSCKASGYTFTDYXMHWVRQAPGQGLEWMGXVNPNXXXTTYNQKFEGRVTMTTDTSTSTAYMELRSLRSDDTAVYYCARXNXLDXWGQGTTVTVSS
chain 2: DIQMTQSPSSLSASVGDRVTITCSVSSSVSSIYLHWYQQKPGKAPKLLIYSTSNLASGVPSRFSGSGSGTDFTLTISSLQPEDFATYYCQVYSGYPLTFGGGTKVEIK

Variants of: B1
Test: yeast display scFab, FACS + sequencing
Summary of the method: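 Non-specific binding was called from deep sequencing of sorted yeast cells displaying a heavy-chain CDR mutant scFab library. Cells labelled with anti-Myc and biotinylated ovalbumin (260 μg/mL in PBSB, 3 h, room temperature) or soluble membrane proteins (130 μg/mL, 20 min on ice) were FACS-sorted, collecting the top 25% and bottom 10% of binders from two replicates. A sequence was positive when present in ≥3 of 4 pooled positive samples and absent from all negatives, and negative under the converse rule.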

| Variant | non-specific binding call |
| --- | --- |
| VTTGGDGV | no binding |
| VTRGDSGA | no binding |
| DTRTAYGF | binds |
| STRKSYAA | binds |
| ATRTDDVF | no binding |
| YTTGGDVA | no binding |
| DTTGSDWV | no binding |
| DTTGSDWA | no binding |
| DTTGSDWY | no binding |
| VTTRAAVS | no binding |
| DTTRADVD | no binding |
| YTTGSASF | no binding |
| YTTRGSWV | no binding |
| FTTRDDSD | no binding |
| ATTGGDWD | no binding |
| DTTGSSGV | no binding |
| VTTKSAAV | no binding |
| VTTKSAAA | no binding |
| YTTKSDGV | no binding |
| VTTKSDGY | no binding |
| VTTKSDGA | no binding |
| FTRRSSLF chain 1 V111I | binds |
| DTTGGDGV | no binding |
| VTRGASGA | no binding |
| YTRKSSVD | binds |
| DTTKSDGV | no binding |

| Variant | non-specific binding call |
| --- | --- |
| YTRGNAWA | binds |
| YTTRDDSD | no binding |
| ATTKSDAA | no binding |
| STTRGAVA | no binding |
| ATTGGDGV | no binding |
| FTTGGSAV chain 1 M48I | no binding |
| YTTGGDWA | no binding |
| ATTKSAVA | no binding |
| VTTADDWV | no binding |
| VTTEASLD | no binding |
| VTTGSASF | no binding |
| VTTKSFGV | no binding |
| DTTEASLV | no binding |
| VTTGGAVD | no binding |
| FTRTNFLS | binds |
| DTTGSDVF | no binding |
| DTTGSDVY | no binding |
| FTTRGAVA | no binding |
| VTTKSYLV | no binding |
| VTTKSAGV | no binding |
| VTTKSAGD | no binding |
| STTKSDGV | no binding |
| YTTGGAVA | no binding |
| YTRGASLD | no binding |
| VTRGDVWV | no binding |
| YTTRGDGV | no binding |

| Variant | non-specific binding call |
| --- | --- |
| STTGGDGV | no binding |
| DTTGSALD | no binding |
| VTTKSSAV | no binding |
| DTTKGDVV | no binding |
| DTTKGDVA | no binding |
| DTTKSSSS | no binding |
| DTTKGDGS | no binding |
| DTTRGAVA | no binding |
| VTTKSDWV | no binding |
| DTTRDDSD | no binding |
| VTTKSAVA | no binding |
| VTTKSSVA | no binding |
| ATTGSASF | no binding |
| DTTGSASF | no binding |
| DTTGSASD | no binding |
| YTTGGSSA | no binding |
| YTTGGDGA | no binding |
| DTTGSDAV | no binding |
| VTTRADVV | no binding |
| VTTRADVF | no binding |
| VTTRADVY | no binding |
| VTTRADVA | no binding |
| VTTRDDSD | no binding |
| ATTKSDGV | no binding |
| ATTKSDGA | no binding |
| VTTKSDSV | no binding |

| Variant | non-specific binding call |
| --- | --- |
| VTTKSDSA | no binding |
| STTGSASF | no binding |
| YTRGASWV | no binding |
| VTTKSDLA | no binding |
| VTTKSSSA | no binding |
| ATTKSDVA | no binding |
| YTTGGAAV | no binding |
| YTRGGSGA | binds |
| VTTKGDVF | no binding |
| VTTKSDVA | no binding |
| VTTKSDVF | no binding |
| YTTRGAGA | no binding |
| YTRGASSS | no binding |
| ATTKSAGD | no binding |
| FTTRSALS | binds |
| DTTGSAVA | no binding |
| DTTGSAVV | no binding |
| VTTRGAVA | no binding |
| VTTKSDAV | no binding |
| ATTRGAVA | no binding |
| YTRGSAWV | binds |
| VTTRAASV | no binding |
| YTTGGYLV | binds |
| VTTRASGD | no binding |
